# Results as given in the MegaScale stability set (Tsuboyama et al. 2023).
# B1: HHH_rd2_0155 (parent)
# chain: PPDDERKKAEKAARSGNEEKAREILERLGYSEDEARELAKRLR
# Variants of: B1
# Assay: folding stability dG (cDNA display proteolysis); higher = more stable
# Conditions: PBS, room temperature
row,Variant,folding stability dG [kcal/mol]
1,PPDDERKKAEKAARSGNEEKAREILERLLYSEDEARELAKRLR [G29L],-0.221
2,PPDDERKKAEKAARSGNEEKAREILERLYYSEDEARELAKRLR [G29Y],0.196
3,PPDDERKKAEKAARSGNEEKAREILERLPYSEDEARELAKRLR [G29P],-0.509
4,PPDDERKKAEKAARSGNEEKAREILERLHYSEDEARELAKRLR [G29H],0.665
5,PPDDERKKAEKAARSGNEEKAREILERHGYSEDEARELAKRLR [L28H],0.699
6,PPDDERKKAEKAARSGNEEKAREILERRGYSEDEARELAKRLR [L28R],0.697
7,PPDDERKKAEKAARSGNEEKAREILERGGYSEDEARELAKRLR [L28G],0.647
8,PPDDERKKAEKAARSGNEEKAREILERVGYSEDEARELAKRLR [L28V],0.87
9,PPDDERKKAEKAARSGNEEKAREILERQGYSEDEARELAKRLR [L28Q],0.844
10,PPDDERKKAEKAARSGNEEKAREILERWGYSEDEARELAKRLR [L28W],1.47
11,PPDDERKKAEKAARSGNEEKAREILEREGYSEDEARELAKRLR [L28E],0.577
12,PPDDERKKAEKAARSGNEEKAREILERYGYSEDEARELAKRLR [L28Y],0.983
13,PPDDERKKAEKAARSGNEEKAREILERMGYSEDEARELAKRLR [L28M],2.29
14,PPDDERKKAEKAARSGNEEKAREILERCGYSEDEARELAKRLR [L28C],1.85
15,PPDDERKKAEKAARSGNEEKAREILERSGYSEDEARELAKRLR [L28S],0.685
16,PPDDERKKAEKAARSGNEEKAREILERDGYSEDEARELAKRLR [L28D],0.418
17,PPDDERKKAEKAARSGNEEKAREILERIGYSEDEARELAKRLR [L28I],1.7
18,PPDDERKKAEKAARSGNEEKAREILERNGYSEDEARELAKRLR [L28N],0.822
19,PPDDERKKAEKAARSGNEEKAREILERAGYSEDEARELAKRLR [L28A],1.54
20,PPDDERKKAEKAARSGNEEKAREILERFGYSEDEARELAKRLR [L28F],1.2

row,Variant,folding stability dG [kcal/mol]
1,PPDDERKKAEKAARSGNEEKAREILERPGYSEDEARELAKRLR [L28P],0.261
2,PPDDERKKAEKAARSGNEEKAREILERKGYSEDEARELAKRLR [L28K],0.443
3,PPDDERKKAEKAARSGNEEKAREILERTGYSEDEARELAKRLR [L28T],0.615
4,PPDDERKKAEKAARSGNEEKAREILERLGHSEDEARELAKRLR [Y30H],1.13
5,PPDDERKKAEKAARSGNEEKAREILERLGVSEDEARELAKRLR [Y30V],0.808
6,PPDDERKKAEKAARSGNEEKAREILERLGKSEDEARELAKRLR [Y30K],0.407
7,PPDDERKKAEKAARSGNEEKAREILERLGASEDEARELAKRLR [Y30A],0.811
8,PPDDERKKAEKAARSGNEEKAREILERLGRSEDEARELAKRLR [Y30R],0.36
9,PPDDERKKAEKAARSGNEEKAREILERLGSSEDEARELAKRLR [Y30S],0.426
10,PPDDERKKAEKAARSGNEEKAREILERLGESEDEARELAKRLR [Y30E],0.197
11,PPDDERKKAEKAARSGNEEKAREILERLGLSEDEARELAKRLR [Y30L],1.79
12,PPDDERKKAEKAARSGNEEKAREILERLGDSEDEARELAKRLR [Y30D],0.243
13,PPDDERKKAEKAARSGNEEKAREILERLGGSEDEARELAKRLR [Y30G],0.222
14,PPDDERKKAEKAARSGNEEKAREILERLGISEDEARELAKRLR [Y30I],1.06
15,PPDDERKKAEKAARSGNEEKAREILERLGTSEDEARELAKRLR [Y30T],0.175
16,PPDDERKKAEKAARSGNEEKAREILERLGWSEDEARELAKRLR [Y30W],1.34
17,PPDDERKKAEKAARSGNEEKAREILERLGQSEDEARELAKRLR [Y30Q],0.238
18,PPDDERKKAEKAARSGNEEKAREILERLGFSEDEARELAKRLR [Y30F],1.94
19,PPDDERKKAEKAARSGNEEKAREILERLGMSEDEARELAKRLR [Y30M],1.74
20,PPDDERKKAEKAARSGNEEKAREILERLGPSEDEARELAKRLR [Y30P],0.57

row,Variant,folding stability dG [kcal/mol]
1,PPDDERKKAEKAARSGNEEKAREILERLGYSGDEARELAKRLR [E32G],1.49
2,PPDDERKKAEKAARSGNEEKAREILERLGYSYDEARELAKRLR [E32Y],1.94
3,PPDDERKKAEKAARSGNEEKAREILERLGYSCDEARELAKRLR [E32C],1.86
4,PPDDERKKAEKAARSGNEEKAREILERLGYSPDEARELAKRLR [E32P],2.48
5,PPDDERKKAEKAARSGNEEKAREILERLGYSIDEARELAKRLR [E32I],1.88
6,PPDDERKKAEKAARSGNEEKAREILERLGYSADEARELAKRLR [E32A],2.33
7,PPDDERKKAEKAARSGNEEKAREILERLGYSVDEARELAKRLR [E32V],2
8,PPDDERKKAEKAARSGNEEKAREILERLGYSFDEARELAKRLR [E32F],1.96
9,PPDDERKKAEKAARSGNEEKAREILERLGYSRDEARELAKRLR [E32R],1.96
10,PPDDERKKAEKAARSGNEEKAREILERLGYSQDEARELAKRLR [E32Q],1.99
11,PPDDERKKAEKAARSGNEEKAREILERLGYSMDEARELAKRLR [E32M],1.78
12,PPDDERKKAEKAARSGNEEKAREILERLGYSLDEARELAKRLR [E32L],1.66
13,PPDDERKKAEKAARSGNEEKAREILERLGYSSDEARELAKRLR [E32S],2.08
14,PPDDERKKAEKAARSGNEEKAREILERLGYSHDEARELAKRLR [E32H],1.97
15,PPDDERKKAEKAARSGNEEKAREILERLGYSKDEARELAKRLR [E32K],2.21
16,PPDDERKKAEKAARSGNEEKAREILERLGYSDDEARELAKRLR [E32D],1.4
17,PPDDERKKAEKAARSGNEEKAREILERLGYSNDEARELAKRLR [E32N],1.51
18,PPDDERKKAEKAARSGNEEKAREILERLGYSTDEARELAKRLR [E32T],1.93
19,PPDDERKKAEKAARSGNEEKAREILERLGYSWDEARELAKRLR [E32W],1.42
